Non-standard residues stand in square brackets, D forms with d. No end group written: not given here. *: point of attachment. Desaminotyrosyl = O=C(CCc1ccc(O)cc1)*; NMeY = CN[C@@H](Cc1ccc(O)cc1)C(=O)O; hArg = N=C(N)NCCCC[C@H](N)C(=O)O; Agmatine = N=C(N)NCCCCN*; Nle = CCCC[C@H](N)C(=O)O; Orn = NCCC[C@H](N)C(=O)O; Abu = CC[C@H](N)C(=O)O; Aoc = NCCCCCCCC(=O)O

The target of experiment [1] is GHRH receptor of human pituitary membranes (human) (UniProt Q02643). Briefly: competition vs 125I-[His1,Nle27]hGHRH(1-32)NH2, human pituitary membranes.
Experiment [2] addresses T1, GHRH receptor of human pituitary membranes (human, UniProt Q02643).
T1 sequence: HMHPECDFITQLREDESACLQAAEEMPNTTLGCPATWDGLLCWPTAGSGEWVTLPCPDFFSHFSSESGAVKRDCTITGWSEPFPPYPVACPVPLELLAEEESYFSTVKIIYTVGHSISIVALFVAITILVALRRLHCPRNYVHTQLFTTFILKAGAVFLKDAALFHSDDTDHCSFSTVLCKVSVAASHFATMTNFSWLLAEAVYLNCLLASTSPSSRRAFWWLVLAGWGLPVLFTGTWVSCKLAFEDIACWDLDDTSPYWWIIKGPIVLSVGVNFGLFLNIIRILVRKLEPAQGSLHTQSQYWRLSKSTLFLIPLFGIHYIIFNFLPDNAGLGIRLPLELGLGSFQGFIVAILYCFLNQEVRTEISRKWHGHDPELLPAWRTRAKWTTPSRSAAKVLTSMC
Described as above.
From the text: (§1) Normal human pituitaries were purchased from the National Hormone and Peptide Program (A.F. Parlow, Los Angeles, County Harbor-UCLA Medical Center, Torrance, Calif.).

The target in experiment [3] is T1, GHRH receptor of human pituitary …. The experiment is described as above. This is another data set of the same source.
From the text: Normal human pituitary was purchased from the National Hormone and Peptide Program (UCLA Medical Center, Torrance, Calif.).
Experiment [4] shares this target. Kind of experiment: competition vs 125I-JV-1-42, human pituitary membranes. Here is the method:
The final binding affinities were expressed as IC₅₀ values and were calculated by using the LIGAND PC computerized curve-fitting program of Munson and Rodbard as modified by McPherson.

The target is the same in experiment [5]. The description is as above. The source holds these as a separate data set.
From the text: as §1
For experiment [6] the target is unchanged. Briefly: competition vs 125I-[His1,Nle27]hGHRH(1-32)NH2, human pituitary membranes. The source holds these as a separate data set.

Take JI-36 (peptide): in experiment [1], the relative affinity (binding potency) vs GHRH (vs GHRH(1-29)=1) was found to be 3.25.
For the molecule JI-34 (peptide), in experiment [1], the relative affinity (binding potency) vs GHRH (vs GHRH(1-29)=1) came to 4.32.

B1: P-21304 [Dat^1, D-Ala^2, Gln^8, Orn^12, Abu^15, Orn^21, Nle^27, Asp^28, Amc^30]hGHRH(1-30)NH2 (peptide)
peptide: [Desaminotyrosyl][dA]DAIFTQSYR[Orn]VL[Abu]QLSAR[Orn]LLQDI[Nle]DR[Aoc]-NH2
SMILES: CCCC[C@H](NC(=O)[C@@H](NC(=O)[C@H](CC(=O)O)NC(=O)[C@H](CCC(N)=O)NC(=O)[C@H](CC(C)C)NC(=O)[C@H](CC(C)C)NC(=O)[C@H](CCCN)NC(=O)[C@H](CCCNC(=N)N)NC(=O)[C@H](C)NC(=O)[C@H](CO)NC(=O)[C@H](CC(C)C)NC(=O)[C@H](CCC(N)=O)NC(=O)[C@H](CC)NC(=O)[C@H](CC(C)C)NC(=O)[C@@H](NC(=O)[C@H](CCCN)NC(=O)[C@H](CCCNC(=N)N)NC(=O)[C@H](Cc1ccc(O)cc1)NC(=O)[C@H](CO)NC(=O)[C@H](CCC(N)=O)NC(=O)[C@@H](NC(=O)[C@H](Cc1ccccc1)NC(=O)[C@@H](NC(=O)[C@H](C)NC(=O)[C@H](CC(=O)O)NC(=O)[C@@H](C)NC(=O)CCc1ccc(O)cc1)[C@@H](C)CC)[C@@H](C)O)C(C)C)[C@@H](C)CC)C(=O)N[C@@H](CC(=O)O)C(=O)N[C@@H](CCCNC(=N)N)C(=O)NCCCCCCCC(N)=O
As usually defined, the IC50 is the concentration that gives 50% inhibition. A high value points to lower potency. With B1, in experiment [2], the IC50 was determined as 0.08 nM, the “relative affinity (binding potency) vs GHRH” value is 74 vs GHRH(1-29)=1 and the “relative affinity (binding potency) vs JI-38” value (from here on “relative affinity … vs JI-38”) stood at 24.4 vs JI-38=1.

B2: P-23256 [Dat^1, D-Ala^2, Ala^8, Orn^12, Abu^15, Orn^21, Nle^27, Asp^28, Har^30]hGHRH(1-30)NH2 (peptide)
peptide: [Desaminotyrosyl][dA]DAIFTASYR[Orn]VL[Abu]QLSAR[Orn]LLQDI[Nle]DR[hArg]-NH2
SMILES: CCCC[C@H](NC(=O)[C@@H](NC(=O)[C@H](CC(=O)O)NC(=O)[C@H](CCC(N)=O)NC(=O)[C@H](CC(C)C)NC(=O)[C@H](CC(C)C)NC(=O)[C@H](CCCN)NC(=O)[C@H](CCCNC(=N)N)NC(=O)[C@H](C)NC(=O)[C@H](CO)NC(=O)[C@H](CC(C)C)NC(=O)[C@H](CCC(N)=O)NC(=O)[C@H](CC)NC(=O)[C@H](CC(C)C)NC(=O)[C@@H](NC(=O)[C@H](CCCN)NC(=O)[C@H](CCCNC(=N)N)NC(=O)[C@H](Cc1ccc(O)cc1)NC(=O)[C@H](CO)NC(=O)[C@H](C)NC(=O)[C@@H](NC(=O)[C@H](Cc1ccccc1)NC(=O)[C@@H](NC(=O)[C@H](C)NC(=O)[C@H](CC(=O)O)NC(=O)[C@@H](C)NC(=O)CCc1ccc(O)cc1)[C@@H](C)CC)[C@@H](C)O)C(C)C)[C@@H](C)CC)C(=O)N[C@@H](CC(=O)O)C(=O)N[C@@H](CCCNC(=N)N)C(=O)N[C@@H](CCCCNC(=N)N)C(N)=O
For B2, in experiment [2], the IC50 is 0.04 nM, the “relative affinity (binding potency) vs GHRH” value is 148 vs GHRH(1-29)=1 and the “relative affinity … vs JI-38” value was 48.7 vs JI-38=1.

B3: JI-38 [Dat^1, Gln^8, Orn^12,21, Abu^15, Nle^27, Asp^28, Agm^29]hGHRH(1-29)NH2 (peptide)
peptide: [Desaminotyrosyl]ADAIFTQSYR[Orn]VL[Abu]QLSAR[Orn]LLQDI[Nle]D[Agmatine]
SMILES: CCCC[C@H](NC(=O)[C@@H](NC(=O)[C@H](CC(=O)O)NC(=O)[C@H](CCC(N)=O)NC(=O)[C@H](CC(C)C)NC(=O)[C@H](CC(C)C)NC(=O)[C@H](CCCN)NC(=O)[C@H](CCCNC(=N)N)NC(=O)[C@H](C)NC(=O)[C@H](CO)NC(=O)[C@H](CC(C)C)NC(=O)[C@H](CCC(N)=O)NC(=O)[C@H](CC)NC(=O)[C@H](CC(C)C)NC(=O)[C@@H](NC(=O)[C@H](CCCN)NC(=O)[C@H](CCCNC(=N)N)NC(=O)[C@H](Cc1ccc(O)cc1)NC(=O)[C@H](CO)NC(=O)[C@H](CCC(N)=O)NC(=O)[C@@H](NC(=O)[C@H](Cc1ccccc1)NC(=O)[C@@H](NC(=O)[C@H](C)NC(=O)[C@H](CC(=O)O)NC(=O)[C@H](C)NC(=O)CCc1ccc(O)cc1)[C@@H](C)CC)[C@@H](C)O)C(C)C)[C@@H](C)CC)C(=O)N[C@@H](CC(=O)O)C(=O)NCCCCNC(=N)N
As to B3, in experiment [3], the IC50 amounted to 2.74 nM, the “relative affinity (binding potency) compared to JI-38” value is 1 vs JI-38=1 and the “relative affinity (binding potency) compared to hGHRH(1-29)” value was 2.79 vs hGHRH(1-29)NH2=1. In experiment [2], the IC50 worked out at 1.95 nM, the “relative affinity (binding potency) vs GHRH” value is 3.03 vs GHRH(1-29)=1 and the “relative affinity … vs JI-38” value was 1 vs JI-38=1. Also, in experiment [4], the IC50 amounted to 1.71 nM, the “relative affinity (binding potency) vs GHRH” value was 2.4 vs GHRH(1-29)=1 and the “relative affinity … vs JI-38” value is 1 vs JI-38=1. Also, in experiment [5], the IC50 was 4.35 nM and the “relative affinity … vs JI-38” value came to 1 vs JI-38=1.

B4: hGHRH(1-29)NH2 (ligand)
peptide: YADAIFTNSYRKVLGQLSARKLLQDIMSR-NH2
For the molecule B4, the values for the concentration for half-maximal inhibition (IC50) in experiment [2] and in experiment [4] were 5.92 nM and 4.06 nM, respectively.

B5: P-23254 [Dat^1, D-Ala^2, Thr^8, Orn^12, Abu^15, Orn^21, Nle^27, Asp^28, Har^30]hGHRH(1-30)NH2 (peptide)
peptide: [Desaminotyrosyl][dA]DAIFTTSYR[Orn]VL[Abu]QLSAR[Orn]LLQDI[Nle]DR[hArg]-NH2
SMILES: CCCC[C@H](NC(=O)[C@@H](NC(=O)[C@H](CC(=O)O)NC(=O)[C@H](CCC(N)=O)NC(=O)[C@H](CC(C)C)NC(=O)[C@H](CC(C)C)NC(=O)[C@H](CCCN)NC(=O)[C@H](CCCNC(=N)N)NC(=O)[C@H](C)NC(=O)[C@H](CO)NC(=O)[C@H](CC(C)C)NC(=O)[C@H](CCC(N)=O)NC(=O)[C@H](CC)NC(=O)[C@H](CC(C)C)NC(=O)[C@@H](NC(=O)[C@H](CCCN)NC(=O)[C@H](CCCNC(=N)N)NC(=O)[C@H](Cc1ccc(O)cc1)NC(=O)[C@H](CO)NC(=O)[C@@H](NC(=O)[C@@H](NC(=O)[C@H](Cc1ccccc1)NC(=O)[C@@H](NC(=O)[C@H](C)NC(=O)[C@H](CC(=O)O)NC(=O)[C@@H](C)NC(=O)CCc1ccc(O)cc1)[C@@H](C)CC)[C@@H](C)O)[C@@H](C)O)C(C)C)[C@@H](C)CC)C(=O)N[C@@H](CC(=O)O)C(=O)N[C@@H](CCCNC(=N)N)C(=O)N[C@@H](CCCCNC(=N)N)C(N)=O
As for B5, in experiment [2], the IC50 is 0.07 nM, the “relative affinity (binding potency) vs GHRH” value was 84.5 vs GHRH(1-29)=1 and the “relative affinity … vs JI-38” value amounted to 27.8 vs JI-38=1.

B6: P-27403 [N-Me-Tyr^1, D-Ala^2, Gln^8, Orn^12, Abu^15, Orn^21, Nle^27, Asp^28]hGHRH(1-29)NH-CH3 (peptide)
peptide: [NMeY][dA]DAIFTQSYR[Orn]VL[Abu]QLSAR[Orn]LLQDI[Nle]DR-NHMe
Regarding B6, in experiment [3], the IC50 turned out to be 0.74 nM, the “relative affinity (binding potency) compared to JI-38” value was 3.69 vs JI-38=1 and the “relative affinity (binding potency) compared to hGHRH(1-29)” value was 10.3 vs hGHRH(1-29)NH2=1. For the same molecule, the “fold enhancement of receptor binding affinity vs JI-38” value in experiment [6] is approximately 3.7 fold vs JI-38. Further, in experiment [5], the IC50 worked out at 0.16 nM and the “relative affinity … vs JI-38” value is 27.2 vs JI-38=1.
